From patent publication US20040197795A1 (published 2004)

Molecular target: T1, RNase I, an RNase from E. coli (Promega Cat. #M4261) (E. coli, UniProt P21338 24-268)
T1 sequence (looked up): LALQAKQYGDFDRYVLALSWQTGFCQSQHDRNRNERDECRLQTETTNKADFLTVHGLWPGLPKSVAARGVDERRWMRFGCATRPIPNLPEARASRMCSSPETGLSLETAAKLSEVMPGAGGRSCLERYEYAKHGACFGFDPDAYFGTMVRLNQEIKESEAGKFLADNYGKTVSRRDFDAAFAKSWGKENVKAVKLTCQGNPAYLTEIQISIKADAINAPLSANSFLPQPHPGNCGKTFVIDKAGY
Experiment: cell-based or functional assay

% inhibition of RNase; RNasin Plus-brand inhibitor without DTT increased 10-fold (10×); 58° C.: 100%
B1: "RNasin Plus"-brand RNase inhibitor (recombinant rat-derived RNase inhibitor protein, Promega Pt # N261) (other, UniProt P29315 1-456, looked up)
chain: MSLDIQCEQLSDARWTELLPLIQQYQVVRLDDCGLTEVRCKDIRSAIQANPALTELSLRTNELGDAGVGLVLQGLQNPTCKIQKLSLQNCSLTEAGCGVLPDVLRSLSTLRELHLNDNPLGDEGLKLLCEGLRDPQCRLEKLQLEYCNLTATSCEPLASVLRVKPDFKELVLSNNDFHEAGIHTLCQGLKDSACQLESLKLENCGITSANCKDLCDVVASKASLQELDLGSNKLGNTGIAALCSGLLLPSCRLRTLWLWDCDVTAEGCKDLCRVLRAKQSLKELSLAGNELKDEGAQLLCESLLEPGCQLESLWVKTCSLTAASCPHFCSVLTKNRSLFELQMSSNPLGDSGVVELCKALGYPDTVLRVLWLGDCDVTDSGCSSLATVLLANRSLRELDLSNNCMGDNGVLQLLESLKQPSCILQQLVLYDIYWTDEVEDQLRALEEERPSLRIIS
